Article PMC9714371, “Haemophilus influenzae Protein D antibody suppression in a multi‐component vaccine formulation” (FEBS Open Bio, 2022)
Several values for one entry are separate records, joined by “and”; a condition that tells them apart may be missing. Equal values may be shown once.

B1: His‐tagged outer membrane protein 26 (OMP26) (natural protein)
chain: EEKIAFINAGYIFQHHPDRQAVADKLDAEFKPVAEKLAASKKEVDDKIAAARKKVEAKVAALEKDAPRLRQADIQKRQQEINKLGAAEDAELQKLMQEQDKKVQEFQAQNEKRQAEERGKLLDSIQTATNNLAKAKGYTYVLDANSIVFAVEGKDITEEVLKSIPASEKAQEKK
notes: OMP26, 26-kDa outer membrane protein of Haemophilus influenzae, homolog of E. coli Skp; Gene bought from GenScript; Predominantly trimers by native MS and SEC, with hexamers in low abundance; also called His‐tagged OMP26; source: E. coli BL‐21*, IPTG induced; not shown: His6, N-terminal, kept
B2: His‐tagged Protein D (non‐lipidated, N‐terminal signal sequence removed) (natural protein)
chain: CSSHSSNMANTQMKSDKIIIAHRGASGYLPEHTLESKALAFAQHSDYLEQDLAMTKDGRLVVIHDHFLDGLTDVAKKFPYRHRKDGRYYVIDFTLKEIQSLEMTENFETKDGKQAQVYPNRFPLWKSHFRIHTFEDEIEFIQGLEKSTGKKVGIYPEIKAPWFHHQNGKDIATETLKVLKKYGYDKKTDMVYLQTFDFNELKRIKTELLPQMGMDLKLVQLIAYTDWKETQEKDPKGYWVNYNYDWMFKPGAMAEVVKYADGVGPGWYMLVNKEESKPDNIVYTPLVKELAQYNVEVHPYTVRKDALPEFFTDVNQMYDALLNKSGATGVFTDFPDTGVEFLKGIK
notes: Gene bought from GenScript, in pET21a; also called PD; His‐tagged PD; source: E. coli BL‐21*, IPTG induced; not shown: His6, N-terminal, kept

Molecular target: the molecule itself
Assay: native MS; nano-electrospray native MS with ion mobility (Waters Synapt G2); His-tagged proteins in 200 mM ammonium acetate pH 6.8, 5 μM; PD alone, OMP26 alone, 1:1 mixture

Protein	stoichiometry N
B1	3 and 6
B2	2 and 4
